{"source": "paper doi:10.1101/2020.06.19.161133", "about": "“Structure of the yeast Nup84-Nup133 complex details flexibility and reveals universal conservation of the membrane anchoring ALPS motif” (bioRxiv, 2020)", "conditions_in_all_cases": "both partners purified", "key": {"[1]": {"target": "T1, Nup133 N-terminal domain (Nup133NTD, residues 55-481) (S. cerevisiae, UniProt P36161)", "T1 construct": "Nup133, S. cerevisiae, N-terminal beta-propeller, residues 55-481; The tag is 3C-cleavable; also called scNup133NTD; WT-Nup133NTD; source: E. coli LOBSTR-RIL(DE3), purified (Ni Sepharose, Superdex 75)", "T1 sequence (P36161 55-481)": "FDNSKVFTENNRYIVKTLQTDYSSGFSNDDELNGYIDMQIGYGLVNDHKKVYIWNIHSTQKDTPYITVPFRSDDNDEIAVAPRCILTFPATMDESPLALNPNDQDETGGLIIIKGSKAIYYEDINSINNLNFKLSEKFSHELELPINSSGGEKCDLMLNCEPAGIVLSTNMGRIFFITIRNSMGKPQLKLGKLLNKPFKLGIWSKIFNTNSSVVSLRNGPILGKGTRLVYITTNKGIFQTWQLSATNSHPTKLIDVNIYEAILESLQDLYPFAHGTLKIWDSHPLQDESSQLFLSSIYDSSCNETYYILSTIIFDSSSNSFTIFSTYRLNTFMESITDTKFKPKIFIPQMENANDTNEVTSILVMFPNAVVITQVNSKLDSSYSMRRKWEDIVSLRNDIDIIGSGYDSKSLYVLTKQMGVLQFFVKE", "test": "crystal structure; Nup133NTD-VHH-SAN5, 2.8 Å, molecular replacement; six copies in the asymmetric unit; crystals at 18 °C, PEG MME 2,000, potassium chloride, Tris/HCl pH 8"}, "[2]": {"target": "T2, Nup84 (full-length, S. cerevisiae) (S. cerevisiae, UniProt P52891)", "T2 construct": "Nup84, S. cerevisiae, full length; The tag is 3C-cleavable; also called scNup84", "T2 sequence (P52891 whole entry)": "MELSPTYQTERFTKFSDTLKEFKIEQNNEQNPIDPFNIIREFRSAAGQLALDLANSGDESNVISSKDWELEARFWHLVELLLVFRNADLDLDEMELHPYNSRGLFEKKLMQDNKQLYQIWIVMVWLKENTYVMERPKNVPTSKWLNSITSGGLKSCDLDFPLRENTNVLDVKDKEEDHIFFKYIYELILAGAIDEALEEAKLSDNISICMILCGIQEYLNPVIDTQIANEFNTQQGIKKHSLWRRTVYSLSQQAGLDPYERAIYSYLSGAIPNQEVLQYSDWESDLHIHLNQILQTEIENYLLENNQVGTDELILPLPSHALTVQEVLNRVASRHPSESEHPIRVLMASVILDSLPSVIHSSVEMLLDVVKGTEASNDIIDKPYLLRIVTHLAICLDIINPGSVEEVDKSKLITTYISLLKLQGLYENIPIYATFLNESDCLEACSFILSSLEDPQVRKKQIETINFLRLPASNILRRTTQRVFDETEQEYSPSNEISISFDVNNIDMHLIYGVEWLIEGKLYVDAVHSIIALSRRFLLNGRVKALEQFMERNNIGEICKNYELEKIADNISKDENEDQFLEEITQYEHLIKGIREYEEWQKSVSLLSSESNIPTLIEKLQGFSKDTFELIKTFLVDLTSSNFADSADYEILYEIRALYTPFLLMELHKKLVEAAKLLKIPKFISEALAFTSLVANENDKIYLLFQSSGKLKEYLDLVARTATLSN", "test": "crystal structure; Nup84-Nup133CTD-VHH-SAN8, 6.4 Å, SAD with a polyoxotungstate derivative; crystals at 18 °C, PEG 8,000, ethylene glycol, imidazole/MES pH 6.5"}, "[3]": {"target": "T3, Nup84-Nup133CTD heterodimeric complex (Saccharomyces cerevisiae (strain ATCC …, UniProt P52891;P36161))", "T3 construct": "Nup84, S. cerevisiae, full length; source: E. coli LOBSTR-RIL(DE3), co-expressed from a bicistronic vector, purified (Ni Sepharose, SP Sepharose, Superdex 200)", "T3 sequence (P52891 whole entry, chain 1 of 2)": "as the sequence (P52891 whole entry) above", "T3 sequence (P36161 521-1157, chain 2 of 2)": "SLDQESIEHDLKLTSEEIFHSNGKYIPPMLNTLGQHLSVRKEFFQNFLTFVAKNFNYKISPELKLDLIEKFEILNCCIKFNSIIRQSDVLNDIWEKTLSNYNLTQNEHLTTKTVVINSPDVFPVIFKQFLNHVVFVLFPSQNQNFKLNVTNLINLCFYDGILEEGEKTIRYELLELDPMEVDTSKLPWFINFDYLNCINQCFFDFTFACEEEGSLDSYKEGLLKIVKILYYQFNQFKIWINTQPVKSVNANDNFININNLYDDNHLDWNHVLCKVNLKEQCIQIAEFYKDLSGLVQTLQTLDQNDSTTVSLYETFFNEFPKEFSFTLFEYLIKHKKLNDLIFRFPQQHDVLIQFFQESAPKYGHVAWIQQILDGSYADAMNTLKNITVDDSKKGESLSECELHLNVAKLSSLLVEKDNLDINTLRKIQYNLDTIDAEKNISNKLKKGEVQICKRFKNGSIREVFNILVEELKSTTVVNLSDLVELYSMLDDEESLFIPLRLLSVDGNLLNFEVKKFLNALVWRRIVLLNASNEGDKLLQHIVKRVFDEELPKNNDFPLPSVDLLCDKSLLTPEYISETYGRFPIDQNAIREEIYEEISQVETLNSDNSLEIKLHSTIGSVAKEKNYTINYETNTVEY", "test": "crystal structure; Nup84-Nup133CTD-VHH-SAN8, 6.4 Å, SAD with a polyoxotungstate derivative; crystals at 18 °C, PEG 8,000, ethylene glycol, imidazole/MES pH 6.5"}, "[4]": {"target": "T2, Nup84 (full-length, S. cerevisiae)", "test": "crystal structure; Nup84-Nup133CTD with VHH-SAN8 and VHH-SAN9, 7.4 Å; same crystal form and conditions as the singly bound complex"}, "[5]": {"target": "T3, Nup84-Nup133CTD heterodimeric complex", "test": "crystal structure; Nup84-Nup133CTD with VHH-SAN8 and VHH-SAN9, 7.4 Å; same crystal form and conditions as the singly bound complex"}, "[6]": {"target": "T1, Nup133 N-terminal domain (Nup133NTD, …)", "test": "crystal structure; Nup133NTD-VHH-SAN4, 2.1 Å, molecular replacement; crystals at 18 °C, PEG 3,350, ammonium sulfate, Bis-Tris/HCl pH 5.5"}}, "data": [{"binder": "VHH-SAN5 (VHH, structure deposited as PDB 6X04 (2.8 Å, nanobody chains); Selected by phage display from an alpaca immunised with the full-length Y complex, panned against Nup133NTD; also called nanobody VHH-SAN5; source: E. coli, purified (Ni Sepharose, tag cut with SEN-p protease, Superdex 75); not shown: 14xHis bdSUMO, N-terminal, cleaved) VHH: QVQLVESGGGLVQAGGSLRLSCAASGSIGSLDAMAWYRRAPGKQRERVASISRYGTYYVDSVKGRFTISRDNAKNTVYLQMNSLKPEDTGVYYCKGVMEVGGVIDEYWGQGTQVTVSS", "values": [{"measurement": "binding result", "setting": "[1]", "value": "binds"}]}, {"binder": "VHH-SAN8 (VHH, structure deposited as PDB 6X02 and 6X03 (the model is a generic nanobody without CDRs, PDB 1BZQ, placed as a rigid body); Selected by phage display from an alpaca immunised with the full-length Y complex, panned against Nup84; also called VHH8; nanobody VHH-SAN8; source: E. coli, purified (Ni Sepharose, tag cut with SEN-p protease, Superdex 75); not shown: 14xHis bdSUMO, N-terminal, cleaved) VHH: QLQLVETGGGLVQAGGSLRLSCVASGRTFTSYAMGWFRQAPGKEREFVAAISRLASGTDYADSVKGRFTISRNNDKNTVYLQMNNLIPEDTAVYYCAALQALRFSLPIAMATMKNGRADSWGQGTQVTVSS", "values": [{"measurement": "binding result", "setting": "[2]", "value": "binds"}, {"measurement": "binding result", "setting": "[3]", "value": "binds"}]}, {"binder": "VHH-SAN9 (VHH, structure deposited as PDB 6X03 (the model is a nanobody without CDRs placed as a rigid body); Selected by phage display from an alpaca immunised with the full-length Y complex; also called VHH9; nanobody VHH-SAN9; source: E. coli, purified (Ni Sepharose, tag cut with SEN-p protease, Superdex 75); not shown: 14xHis bdSUMO, N-terminal, cleaved) VHH: QVQLVESGGGSVQAGGSLRLSCAVSGGTLSTLAMGWFRQAPGQEREFVARIGWTNGDTGYADSVKGRFTISRDNVKNTVYLQMNNLKPEDTALYYCATRRPYGSTLYPPNTESAHDNWGQGTQVTVSS", "values": [{"measurement": "binding result", "setting": "[4]", "value": "binds"}, {"measurement": "binding result", "setting": "[5]", "value": "binds"}]}, {"binder": "VHH-SAN4 (VHH, structure deposited as PDB 6X05 (2.1 Å, nanobody chain); Selected by phage display from an alpaca immunised with the full-length Y complex, panned against Nup133NTD; also called nanobody VHH-SAN4; source: E. coli, purified (Ni Sepharose, tag cut with SEN-p protease, Superdex 75); not shown: 14xHis bdSUMO, N-terminal, cleaved) VHH: QLQLVESGGGSVQAGGSLTLSCTASESISKRIHGIGWFRQRRGEQREEIAYITTGGRPNLGDSVKDRFTISRDKSNGTVYLQMNSLKPEDTAVYYCHGRGRWWGTEGRLDYWGQGTQVTVSS", "values": [{"measurement": "binding result", "setting": "[6]", "value": "binds"}]}]}
